The record followed here is patent US20140186370A1.

The test deals with vaccinia virus B5R 6xHis protein (baculovirus-expressed soluble extracellular domain) (vaccinia virus).

What is called % inhibition is the percentage by which the read-out fell short of the control. A low value points to a response near the control. Take Hum IgG1 isotype control (antibody): the % inhibition was determined as 0%.
